{"source": "patent US20150285801", "tested_on": "GST-topo I", "sequence (chain, as listed by the source)": "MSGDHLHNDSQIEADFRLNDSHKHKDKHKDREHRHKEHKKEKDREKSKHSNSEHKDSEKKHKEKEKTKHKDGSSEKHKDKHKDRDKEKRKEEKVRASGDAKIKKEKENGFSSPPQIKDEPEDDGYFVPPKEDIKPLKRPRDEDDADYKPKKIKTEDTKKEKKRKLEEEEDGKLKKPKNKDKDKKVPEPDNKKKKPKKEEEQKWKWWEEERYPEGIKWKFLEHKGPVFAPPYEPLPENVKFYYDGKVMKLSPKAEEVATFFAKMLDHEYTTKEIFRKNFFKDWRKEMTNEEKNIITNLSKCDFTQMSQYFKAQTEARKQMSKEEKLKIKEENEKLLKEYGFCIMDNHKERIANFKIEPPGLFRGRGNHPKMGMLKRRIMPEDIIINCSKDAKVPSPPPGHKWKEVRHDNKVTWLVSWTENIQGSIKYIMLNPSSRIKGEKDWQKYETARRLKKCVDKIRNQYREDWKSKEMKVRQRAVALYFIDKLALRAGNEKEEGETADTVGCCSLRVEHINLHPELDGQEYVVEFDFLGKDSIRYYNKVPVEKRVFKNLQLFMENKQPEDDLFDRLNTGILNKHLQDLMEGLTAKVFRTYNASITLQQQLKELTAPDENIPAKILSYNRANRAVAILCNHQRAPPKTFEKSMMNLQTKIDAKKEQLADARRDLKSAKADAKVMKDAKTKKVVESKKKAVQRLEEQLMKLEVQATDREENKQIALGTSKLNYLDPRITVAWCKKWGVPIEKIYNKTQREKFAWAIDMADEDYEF", "data": [{"substance": "BRCA1/BARD1 (E3)", "values": [{"measurement": "in vitro ubiquitination, immunoblot with anti-ubiquitin", "value": "topo I is ubiquitinated by BRCA1"}]}]}
